Results taken from paper PMC8212047 (Frontiers in Immunology, 2021).

Biological target: SARS-CoV-2 RBD (Wuhan-1) RBD-FC fusion protein (SARS-CoV-2, UniProt P0DTC2)
Assay: SPR
Settings: both partners purified

| Binder | binding result |
| --- | --- |
| RGN10933 (antibody, V domains shown) VH: QVQLVESGGGLVKPGGSLRLSCAASGFTFSDYYMSWIRQAPGKGLEWVSYITYSGSTIYYADSVKGRFTISRDNAKSSLYLQMNSLRAEDTAVYYCARDRGTTMVPFDYWGQGTLVTVSS VL: DIQMTQSPSSLSASVGDRVTITCQASQDITNYLNWYQQKPGKAPKLLIYAASNLETGVPSRFSGSGSGTDFTFTISGLQPEDIATYYCQQYDNLPLTFGGGTKVEIK | binds |
| RGN10987 (antibody, V domains shown) VH: QVQLVESGGGVVQPGRSLRLSCAASGFTFSNYAMYWVRQAPGKGLEWVAVISYDGSNKYYADSVKGRFTISRDNSKNTLYLQMNSLRTEDTAVYYCASGSDYGDYLLVYWGQGTLVTVSS VL: QSALTQPASVSGSPGQSITISCTGTSSDVGGYNYVSWYQQHPGKAPKLMIYDVSKRPSGVSNRFSGSKSGNTASLTISGLQSEDEADYYCNSLTSISTWVFGGGTKLTVL | binds |
| CB6 (antibody, V domains shown, source: produced and purified as previously described (29)) VH: EVQLVESGGGLVQPGGSLRLSCAASGFTVSSNYMSWVRQAPGKGLEWVSVIYSGGSTFYADSVKGRFTISRDNSMNTLFLQMNSLRAEDTAVYYCARVLPMYGDYLDYWGQGTLVTVSS VL: not shown | binds |
